Measured values reported in patent US8114832.

Molecular target: endostatin (UniProt P39060)
Assay: SPR (Biacore), Fn F4-5 immobilized on CM5 chip, concentration series of endostatin

Chain of endostatin (P39060 1572-1754): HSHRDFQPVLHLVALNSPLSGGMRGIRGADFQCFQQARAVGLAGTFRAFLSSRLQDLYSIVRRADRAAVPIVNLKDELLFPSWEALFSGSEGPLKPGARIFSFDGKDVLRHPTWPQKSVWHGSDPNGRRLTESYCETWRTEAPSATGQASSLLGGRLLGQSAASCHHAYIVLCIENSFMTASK

concentration of ligand that results in half maximum binding: 800 nM
Substance: Fn F4-5-His6 (from UniProt P02751 182-276)
